Read-outs that look alike come from different tables or passages of the source.
B1: 32-mer dsDNA (dsDNA)
DNA 1: AGTGATCAGTGGTTACGTAACCACTGATCACT
DNA 2: B1 DNA 1
B2: 32-mer ssDNA (ssDNA)
DNA: B1 DNA 1

Columns and labels:
Assay in all cases: EMSA
Ecm16 [1] = target: T1, Ecm16 (Streptomyces lasalocidi, UniProt Q0X0A9 1-792)
T1 sequence: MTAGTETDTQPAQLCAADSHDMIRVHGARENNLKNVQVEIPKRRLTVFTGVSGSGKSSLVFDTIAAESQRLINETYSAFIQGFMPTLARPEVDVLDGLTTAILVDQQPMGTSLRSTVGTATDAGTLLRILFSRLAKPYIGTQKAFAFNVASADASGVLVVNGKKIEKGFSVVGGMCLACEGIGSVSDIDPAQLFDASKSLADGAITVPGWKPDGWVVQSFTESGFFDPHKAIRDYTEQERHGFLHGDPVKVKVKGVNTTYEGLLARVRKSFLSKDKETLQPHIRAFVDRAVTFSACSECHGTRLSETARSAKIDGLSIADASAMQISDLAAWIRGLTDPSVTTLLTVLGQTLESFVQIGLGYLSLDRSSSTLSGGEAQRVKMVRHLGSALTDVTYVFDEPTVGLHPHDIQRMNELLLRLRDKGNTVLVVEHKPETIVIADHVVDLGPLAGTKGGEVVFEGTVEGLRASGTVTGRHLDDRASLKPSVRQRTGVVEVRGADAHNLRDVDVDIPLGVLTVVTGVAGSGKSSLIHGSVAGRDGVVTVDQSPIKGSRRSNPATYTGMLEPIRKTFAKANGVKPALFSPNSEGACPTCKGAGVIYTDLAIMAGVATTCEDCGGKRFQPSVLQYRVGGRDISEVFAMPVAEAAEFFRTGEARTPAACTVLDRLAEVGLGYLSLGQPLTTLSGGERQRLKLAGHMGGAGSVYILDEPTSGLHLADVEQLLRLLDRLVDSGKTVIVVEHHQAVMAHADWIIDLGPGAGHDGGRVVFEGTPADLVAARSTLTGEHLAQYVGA

Ecm16 [2] = target: T1, Ecm16; remark: listed apart in the source
Ecm16 [3] = target: T1, Ecm16; remark: listed apart in the source

Binder | Kd (Ecm16 [1]) [nM] | Kd (Ecm16 [2]) [nM] | Kd (Ecm16 [3]) [nM]
B1 | 20.6 | 34.8 | 
B2 |  |  | 39.6

Reference: paper PMC9328131
